Results taken from PMC3765907, “S-Nitrosylation of parkin as a novel regulator of p53-mediated neuronal cell death in sporadic Parkinson’s disease”.

Target: parkin (wild-type, GST-tagged) (UniProt O60260 1-465)
Test: EMSA; parkin 100 nM to 1 uM, 0.1 nM probe; shift increases with parkin; 1x binding buffer (Panomics), room temperature, 20 min; 0.1 nM biotin probe, 1 uM parkin (100 nM-1 uM titration); 6% PAGE in 0.5x TBE pH 8.3; salt not stated
Settings: protein: recombinant; tags: GST; label: 5' biotin; blunt

parkin (wild-type, GST-tagged), sequence (O60260 whole entry): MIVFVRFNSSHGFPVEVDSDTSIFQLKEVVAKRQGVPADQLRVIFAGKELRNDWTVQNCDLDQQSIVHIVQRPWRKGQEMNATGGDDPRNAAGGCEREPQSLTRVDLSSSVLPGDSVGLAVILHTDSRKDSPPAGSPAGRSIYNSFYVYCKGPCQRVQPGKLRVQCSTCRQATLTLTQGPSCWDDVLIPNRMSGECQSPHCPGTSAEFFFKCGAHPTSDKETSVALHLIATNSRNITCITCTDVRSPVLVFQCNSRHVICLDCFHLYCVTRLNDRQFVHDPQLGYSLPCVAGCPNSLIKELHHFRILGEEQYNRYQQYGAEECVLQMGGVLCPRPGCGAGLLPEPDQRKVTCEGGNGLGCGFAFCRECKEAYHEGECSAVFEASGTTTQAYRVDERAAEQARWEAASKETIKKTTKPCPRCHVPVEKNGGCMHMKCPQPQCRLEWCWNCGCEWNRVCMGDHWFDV

B1: Pp53 (human p53 promoter probe) (dsDNA)
DNA 1: GGCACCAGGTCGGCGAGAATCCTGACTCTGCACCCTCCTCCCCAACTCCATTTCCTTTGCTTCCTCCGGC
DNA 2: GCCGGAGGAAGCAAAGGAAATGGAGTTGGGGAGGAGGGTGCAGAGTCAGGATTCTCGCCGACCTGGTGCC
binding result: binds
